What was measured:
[1] = tested on: CCN(CC)c1ccc2cc(-c3ccc(/C=N/NC(N)=S)s3)c(=O)oc2c1; assay: purified protein; conditions: pH 8.0; 37.0 °C
[2] = tested on: CC(=O)Nc1ccc(/C=N/NC(N)=S)cc1; assay: purified protein; conditions: pH 8.0; 37.0 °C

EthA (Mycobacterium tuberculosis H37Rv)
Km [1]: 16 ± 2 µM | Km [2]: 153 ± 11 µM

— article PMC8022203 (ACS infectious diseases, 2021)
